# Test results taken from US20220280615A1.
# B1: iTEP28-IBD (designed binder)
# chain: GVLPGVGGVLPGVGGVLPGVGGVLPGVGGVLPGVGGVLPGVGGVLPGVGGVLPGVGGVLPGVGGVLPGVGGVLPGVGGVLPGVGGVLPGVGGVLPGVGGVLPGVGGVLPGVGGVLPGVGGVLPGVGGVLPGVGGVLPGVGGVLPGVGGVLPGVGGVLPGVGGVLPGVGGVLPGVGGVLPGVGGVLPGVGGVLPGVGGGGGSTTYKLVINGKTLKGETTTKAVDAETAEKAFKQYANDNGVDGVWTYDDATKTFTVTE
# B2: iTEP56-IBD (designed binder)
# chain: GVLPGVGGVLPGVGGVLPGVGGVLPGVGGVLPGVGGVLPGVGGVLPGVGGVLPGVGGVLPGVGGVLPGVGGVLPGVGGVLPGVGGVLPGVGGVLPGVGGVLPGVGGVLPGVGGVLPGVGGVLPGVGGVLPGVGGVLPGVGGVLPGVGGVLPGVGGVLPGVGGVLPGVGGVLPGVGGVLPGVGGVLPGVGGVLPGVGGVLPGVGGVLPGVGGVLPGVGGVLPGVGGVLPGVGGVLPGVGGVLPGVGGVLPGVGGVLPGVGGVLPGVGGVLPGVGGVLPGVGGVLPGVGGVLPGVGGVLPGVGGVLPGVGGVLPGVGGVLPGVGGVLPGVGGVLPGVGGVLPGVGGVLPGVGGVLPGVGGVLPGVGGVLPGVGGVLPGVGGVLPGVGGVLPGVGGVLPGVGGGGGSTTYKLVINGKTLKGETTTKAVDAETAEKAFKQYANDNGVDGVWTYDDATKTFTVTE
# B3: iTEP112-IBD (designed binder)
# chain: GVLPGVGGVLPGVGGVLPGVGGVLPGVGGVLPGVGGVLPGVGGVLPGVGGVLPGVGGVLPGVGGVLPGVGGVLPGVGGVLPGVGGVLPGVGGVLPGVGGVLPGVGGVLPGVGGVLPGVGGVLPGVGGVLPGVGGVLPGVGGVLPGVGGVLPGVGGVLPGVGGVLPGVGGVLPGVGGVLPGVGGVLPGVGGVLPGVGGVLPGVGGVLPGVGGVLPGVGGVLPGVGGVLPGVGGVLPGVGGVLPGVGGVLPGVGGVLPGVGGVLPGVGGVLPGVGGVLPGVGGVLPGVGGVLPGVGGVLPGVGGVLPGVGGVLPGVGGVLPGVGGVLPGVGGVLPGVGGVLPGVGGVLPGVGGVLPGVGGVLPGVGGVLPGVGGVLPGVGGVLPGVGGVLPGVGGVLPGVGGVLPGVGGVLPGVGGVLPGVGGVLPGVGGVLPGVGGVLPGVGGVLPGVGGVLPGVGGVLPGVGGVLPGVGGVLPGVGGVLPGVGGVLPGVGGVLPGVGGVLPGVGGVLPGVGGVLPGVGGVLPGVGGVLPGVGGVLPGVGGVLPGVGGVLPGVGGVLPGVGGVLPGVGGVLPGVGGVLPGVGGVLPGVGGVLPGVGGVLPGVGGVLPGVGGVLPGVGGVLPGVGGVLPGVGGVLPGVGGVLPGVGGVLPGVGGVLPGVGGVLPGVGGVLPGVGGVLPGVGGVLPGVGGVLPGVGGVLPGVGGVLPGVGGVLPGVGGVLPGVGGVLPGVGGVLPGVGGVLPGVGGVLPGVGGVLPGVGGVLPGVGGVLPGVGGVLPGVGGVLPGVGGGGGSTTYKLVINGKTLKGETTTKAVDAETAEKAFKQYANDNGVDGVWTYDDATKTFTVTE
# Biological target: Human IgG (polyclonal, Innovative Research) (human)
# Test: depot trapping: polypeptide mixed with fluorescein-labeled human IgG (1 mg/mL), 37 °C, centrifuged, pellet fluorescence; molar ratio 8 or higher
row,Binder,percent of IgG in depots [%]
1,B1,55
2,B2,90
3,B3,90
